By Kd is commonly meant the constant that tells how readily two partners part at equilibrium. Low readings indicate higher affinity, high ones lower affinity. One may read the koff as the rate constant with which the complex falls apart. Read a low koff as a long-lived complex. Usually kon stands for a measure of how fast the partners come together. A high value points to fast association.

The target of experiment [1] is IL-12 receptor on HEK-BLUE IL-12 cells. Briefly: cell-based or functional assay.
Experiment [2] concerns the target GM-CSF receptor on U937 cells (human). Put plainly: cell-based or functional assay.
For experiment [3], the target named is p35-MSA fusion protein (human; mouse) (UniProt P29459). Put plainly: BLI (Octet), biotinylated p35-MSA against p40-fab, 0 hr at 37 C. (In general: Biolayer interferometry detects binding as a change in optical thickness at a sensor tip.)
p35-MSA fusion protein (human; mouse), sequence (P29459 23-219): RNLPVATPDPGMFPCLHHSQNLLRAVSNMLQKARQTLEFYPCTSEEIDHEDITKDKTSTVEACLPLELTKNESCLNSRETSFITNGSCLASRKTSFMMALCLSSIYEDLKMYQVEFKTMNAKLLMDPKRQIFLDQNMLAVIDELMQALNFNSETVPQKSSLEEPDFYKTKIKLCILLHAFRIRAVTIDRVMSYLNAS
The target is the same in experiment [4]. Briefly: BLI (Octet), biotinylated p35-MSA against p40-fab, 4 hr at 37 C.
Experiment [5] shares this target. Briefly: BLI (Octet), biotinylated p35-MSA against p40-fab, 24 hr at 37 C.
Experiment [6] shares this target. Put plainly: BLI (Octet), biotinylated p35-MSA against p40-fab, 47 hr at 37 C.
The target of experiment [7] is p40 without a fusion partner (human) (UniProt P29460). Put plainly: cell-based or functional assay.
For experiment [8], the target named is p40-Fab fusion protein (human) (UniProt P29460). Briefly: cell-based or functional assay.
p40-Fab fusion protein (human), sequence (P29460 23-328): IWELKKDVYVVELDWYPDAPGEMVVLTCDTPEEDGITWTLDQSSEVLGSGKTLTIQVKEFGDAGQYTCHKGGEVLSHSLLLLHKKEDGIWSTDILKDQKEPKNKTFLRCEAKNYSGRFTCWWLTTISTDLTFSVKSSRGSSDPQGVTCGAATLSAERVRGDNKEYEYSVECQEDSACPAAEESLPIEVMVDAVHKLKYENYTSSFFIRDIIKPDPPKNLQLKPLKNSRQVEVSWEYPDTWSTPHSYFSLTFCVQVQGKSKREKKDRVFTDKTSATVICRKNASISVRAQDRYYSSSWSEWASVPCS
The target of experiment [9] is p40-IgG (anti-uPAR M37 IgG) (human) (UniProt P29460). Briefly: cell-based or functional assay.
p40-IgG (anti-uPAR M37 IgG) (human), sequence (P29460 23-328): as above

p40-Fab fusion protein, sequence (P29460 23-328): as above

“wild-type human IL-12 (R&D Systems, Cat. No. 219-IL-005/CF) (from UniProt P29459 23-219; P29460 23-328) (ligand)”: the potency, SEAP reporter in HEK-BLUE IL-12 cells in experiment [1] is 0.018 nM.
Take “recombinant human GM-CSF (R&D Systems, cat # 215-GM-050/CF) (from UniProt P04141 18-144) (ligand)”: the pSTAT5 EC50, U937 cells, no competitor in experiment [2] is 18.6 pM.
As for “p40-Fab fusion protein (from UniProt P29460 23-328)”, the Kd in experiment [3] amounted to 7.82 nM; in [4], 7.54 nM; in experiment [5] it was 11.1 nM; in experiment [6], 10.5 nM. Further, the koff in [3] was determined as 0.000462 s⁻¹; in experiment [4] it was 0.000385 s⁻¹; in experiment [5] it was 0.000422 s⁻¹; in experiment [6], 0.000376 s⁻¹. Moreover, the kon in experiment [3] came to 59100 M⁻¹ s⁻¹; in [4], 51100 M⁻¹ s⁻¹; in [5], 38100 M⁻¹ s⁻¹; in experiment [6] it was 35800 M⁻¹ s⁻¹.
In experiment [7], “p35-MSA fusion protein (from UniProt P29459 23-219)” yielded an EC50, % pStat4 formation in CD4+ T cells of 0.842 nM; an EC50, % pStat4 formation in CD8+ T cells of 1.06 nM; an EC50, IFN gamma production by T cells of 0.657 nM; an EC50 fold change relative to scIL-12, IFN gamma production of 128 fold. In experiment [7], the EC50 fold change relative to scIL-12, pStat4 in CD4+ T cells amounted to 16.4 fold and the EC50 fold change relative to scIL-12, pStat4 in CD8+ T cells is 14.2 fold. In experiment [8], this substance gave an EC50, % pStat4 formation in CD4+ T cells of 0.708 nM; an EC50, % pStat4 formation in CD8+ T cells of 0.912 nM; an EC50, IFN gamma production by T cells of 0.559 nM; an EC50 fold change relative to scIL-12, IFN gamma production of 109 fold. In [8], the EC50 fold change relative to scIL-12, pStat4 in CD4+ T cells was 13.8 fold and the EC50 fold change relative to scIL-12, pStat4 in CD8+ T cells is 12.2 fold. Moreover, in experiment [9], the EC50, % pStat4 formation in CD4+ T cells was found to be 0.173 nM; the EC50, % pStat4 formation in CD8+ T cells is 0.571 nM; the EC50, IFN gamma production by T cells came out at 0.403 nM; the EC50 fold change relative to scIL-12, IFN gamma production is 78.2 fold. In experiment [9], this substance displayed an EC50 fold change relative to scIL-12, pStat4 in CD4+ T cells of 3.37 fold and an EC50 fold change relative to scIL-12, pStat4 in CD8+ T cells of 7.66 fold.

The values are drawn from US20220340678A1.
